The results in this text go back to paper PMC6549176, “SAGA DUBm-mediated surveillance regulates prompt export of stress-inducible transcripts for proteostasis” (Nature Communications, 2019).

This test has as its target T1, recombinant Sgf73p (MBP-Sgf73p) (S. cerevisiae, UniProt P53165 1-657).
T1 construct: Sgf73p of the SAGA DUBm, S. cerevisiae; source: recombinant
T1 sequence (looked up): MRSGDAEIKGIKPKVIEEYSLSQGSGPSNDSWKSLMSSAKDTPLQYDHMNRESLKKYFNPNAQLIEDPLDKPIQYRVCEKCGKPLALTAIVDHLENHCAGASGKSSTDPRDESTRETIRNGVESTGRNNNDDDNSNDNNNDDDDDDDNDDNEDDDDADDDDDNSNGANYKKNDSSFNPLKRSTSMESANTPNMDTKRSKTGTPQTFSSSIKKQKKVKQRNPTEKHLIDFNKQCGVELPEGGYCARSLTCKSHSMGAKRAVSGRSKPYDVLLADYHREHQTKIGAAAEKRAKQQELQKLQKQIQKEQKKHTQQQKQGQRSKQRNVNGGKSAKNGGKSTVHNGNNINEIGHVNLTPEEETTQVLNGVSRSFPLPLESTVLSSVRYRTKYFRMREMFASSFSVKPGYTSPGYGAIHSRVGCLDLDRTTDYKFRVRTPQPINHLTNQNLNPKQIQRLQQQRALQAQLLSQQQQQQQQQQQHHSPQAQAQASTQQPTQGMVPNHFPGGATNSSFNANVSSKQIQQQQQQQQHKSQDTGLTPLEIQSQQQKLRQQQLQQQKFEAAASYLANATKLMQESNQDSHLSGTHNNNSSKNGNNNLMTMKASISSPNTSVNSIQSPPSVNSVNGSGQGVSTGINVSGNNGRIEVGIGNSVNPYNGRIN
The test is described as follows: pull-down; GST-tagged Yra1p or its subfragments as bait (1 µg) on beads, 200 ng target protein; 50 mM HEPES-KOH pH 7.5, 150 mM NaCl, 10% glycerol, 0.1% NP40, 0.5 mM DTT, 1 mM EDTA; 4 °C, 2 h; Western blotting. To be noted: both partners purified. (In general: A western blot detects proteins with antibodies after separation by electrophoresis.)

B1: GST-tagged Yra1p (natural protein, S. cerevisiae, UniProt Q12159 1-226, looked up)
chain: MSANLDKSLDEIIGSNKAGSNRARVGGTRGNGPRRVGKQVGSQRRSLPNRRGPIRKNTRAPPNAVARVAKLLDTTREVKVNVEGLPRDIKQDAVREFFASQVGGVQRVLLSYNERGQSTGMANITFKNGELARRAVERFNGSPIDGGRSRLRLNLIVDPNQRPVKSLADRIKAMPQKGGNAPRPVKRGPNRKAAMAKSQNKPKREKPAKKSLEDLDKEMADYFEKK
notes: Yra1p, essential mRNA export factor, S. cerevisiae; also called GST-Yra1p
For the molecule B1, the binding result is “binds”.
